Paper PMC7215426

Tests used:
[1] = biological target: T1, C-reactive protein (CRP) (human) (UniProt P02741); assay: SPR; conditions: Ugu; SPR (ProteON XPR36) at 25 C in SB: 40 mM HEPES pH 7.5, 125 mM NaCl, 5 mM KCl, 1 mM MgCl2, 0.01% Tween 20; aptamer immobilized via 3' A20/T20 hybridized to …
T1 sequence: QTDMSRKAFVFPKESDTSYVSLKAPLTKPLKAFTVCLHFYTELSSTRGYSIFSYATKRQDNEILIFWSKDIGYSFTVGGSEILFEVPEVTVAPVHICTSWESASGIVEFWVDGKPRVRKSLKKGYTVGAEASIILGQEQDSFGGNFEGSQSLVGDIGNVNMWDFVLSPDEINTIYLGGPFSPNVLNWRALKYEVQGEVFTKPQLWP

[2] = biological target: Lactate dehydrogenase-5 (LDH-5) (human) (UniProt P00338); assay: SPR; conditions: Aad; SPR (ProteON XPR36) at 25 C in SB: 40 mM HEPES pH 7.5, 125 mM NaCl, 5 mM KCl, 1 mM MgCl2, 0.01% Tween 20; aptamer immobilized via 3' A20/T20 hybridized to …

Row | Sequence | Kd [1] [nM] | Kd [2] [nM]
1 | CGCACATCAGTTTAGCTAGTTCTGCCTTAATATGGTCGGTTAAGCGCA [CRP-Ugu4-3] | 0.0062 | –
2 | TGCTGCTGGCTCGTGAGACGGATATCAGGTCTCCTAAGGCTGGC [LDH-Aad1-3] | – | 0.235
